Assay results reported in article PMC7681980.
Read-outs that look alike come from different tables or passages of the source.

Legend:
[1] = target: type I collagen extracted from male Wistar Hannover rat tail tendons (dialyzed) (rat (Wistar Hannover, extracted from tail tendons)) (UniProt P02454); assay: ITC; NaOH (4.6 uM in ultrapure water) titrated in 24 aliquots into 950 uL type I collagen (0.2 mg/mL in 0.33% v/v acetic acid), 30.0 ± 0.1 °C, stirred at 300 rpm; self-assembly (fibrillogenesis) triggered by the rise in pH; areas corrected by the acid-base control titration; enthalpy of self-assembly at the isoelectric point; at least triplicate
[2] = target: type I collagen extracted from male Wistar Hannover rat tail tendons (dialyzed) (rat (Wistar Hannover, extracted from tail tendons)) (UniProt P02454); assay: as above; remark: listed apart in the source

type I collagen extracted from male Wistar Hannover rat tail tendons (dialyzed), P02454 152-1207; P02466 86-1125 (complex; other documents disagree on this pair), sequence (P02454 152-1207): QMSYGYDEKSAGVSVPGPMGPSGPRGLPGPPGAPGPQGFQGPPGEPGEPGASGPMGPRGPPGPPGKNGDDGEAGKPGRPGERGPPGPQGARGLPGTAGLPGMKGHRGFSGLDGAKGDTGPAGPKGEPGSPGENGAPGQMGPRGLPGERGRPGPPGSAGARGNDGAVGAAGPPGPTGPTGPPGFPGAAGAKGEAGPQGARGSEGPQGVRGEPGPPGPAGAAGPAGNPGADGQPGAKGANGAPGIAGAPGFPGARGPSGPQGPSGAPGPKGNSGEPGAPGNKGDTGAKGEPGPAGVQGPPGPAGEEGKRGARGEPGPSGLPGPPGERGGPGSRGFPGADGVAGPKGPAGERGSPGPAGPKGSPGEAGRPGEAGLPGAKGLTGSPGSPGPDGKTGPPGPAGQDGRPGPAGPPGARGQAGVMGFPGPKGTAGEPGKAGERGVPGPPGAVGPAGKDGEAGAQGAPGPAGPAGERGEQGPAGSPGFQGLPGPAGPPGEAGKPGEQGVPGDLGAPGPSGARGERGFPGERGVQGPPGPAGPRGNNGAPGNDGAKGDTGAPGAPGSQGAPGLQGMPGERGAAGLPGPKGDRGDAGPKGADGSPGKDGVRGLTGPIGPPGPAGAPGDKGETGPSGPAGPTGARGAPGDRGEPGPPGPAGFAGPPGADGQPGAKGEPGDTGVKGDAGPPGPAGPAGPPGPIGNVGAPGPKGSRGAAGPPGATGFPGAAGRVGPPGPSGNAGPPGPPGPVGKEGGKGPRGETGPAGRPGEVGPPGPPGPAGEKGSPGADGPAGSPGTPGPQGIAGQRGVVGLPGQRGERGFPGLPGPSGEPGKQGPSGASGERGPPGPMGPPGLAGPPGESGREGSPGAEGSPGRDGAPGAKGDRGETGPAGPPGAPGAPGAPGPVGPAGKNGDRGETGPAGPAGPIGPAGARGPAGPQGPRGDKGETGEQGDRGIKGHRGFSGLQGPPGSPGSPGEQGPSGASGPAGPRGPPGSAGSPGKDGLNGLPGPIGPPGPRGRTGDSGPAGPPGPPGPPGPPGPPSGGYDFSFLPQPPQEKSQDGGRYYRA
type I collagen extracted from male Wistar Hannover rat tail tendons (dialyzed), P02454 152-1207; P02466 86-1125 (complex; other documents disagree on this pair), sequence (P02466 86-1125): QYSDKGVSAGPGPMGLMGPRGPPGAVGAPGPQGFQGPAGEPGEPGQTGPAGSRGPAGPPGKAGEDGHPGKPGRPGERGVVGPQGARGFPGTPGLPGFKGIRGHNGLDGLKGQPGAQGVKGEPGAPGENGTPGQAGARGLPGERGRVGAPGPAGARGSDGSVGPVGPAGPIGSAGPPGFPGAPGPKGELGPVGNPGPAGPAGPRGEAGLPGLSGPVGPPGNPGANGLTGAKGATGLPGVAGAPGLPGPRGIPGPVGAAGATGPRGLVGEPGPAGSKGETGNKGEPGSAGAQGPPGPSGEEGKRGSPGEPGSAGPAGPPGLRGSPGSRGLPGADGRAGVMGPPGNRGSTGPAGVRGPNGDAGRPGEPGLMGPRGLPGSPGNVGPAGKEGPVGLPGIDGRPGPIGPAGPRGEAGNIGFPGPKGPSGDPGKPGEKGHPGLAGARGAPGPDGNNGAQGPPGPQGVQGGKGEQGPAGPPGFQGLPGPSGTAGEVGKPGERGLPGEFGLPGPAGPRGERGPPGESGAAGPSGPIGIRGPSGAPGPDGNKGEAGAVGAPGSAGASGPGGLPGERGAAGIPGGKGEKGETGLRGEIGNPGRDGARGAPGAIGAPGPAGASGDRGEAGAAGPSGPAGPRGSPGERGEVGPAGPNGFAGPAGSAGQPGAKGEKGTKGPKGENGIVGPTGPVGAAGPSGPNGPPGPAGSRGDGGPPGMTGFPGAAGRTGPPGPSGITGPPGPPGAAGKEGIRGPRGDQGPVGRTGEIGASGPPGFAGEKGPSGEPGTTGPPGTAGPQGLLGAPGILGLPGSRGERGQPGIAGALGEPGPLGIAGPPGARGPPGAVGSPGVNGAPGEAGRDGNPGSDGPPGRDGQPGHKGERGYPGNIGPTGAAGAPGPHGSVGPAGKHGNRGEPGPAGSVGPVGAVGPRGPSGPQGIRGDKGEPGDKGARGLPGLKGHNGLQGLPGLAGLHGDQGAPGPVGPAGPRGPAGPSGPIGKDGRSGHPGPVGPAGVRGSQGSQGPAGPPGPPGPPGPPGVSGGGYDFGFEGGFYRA

- dH [1]: 3.27 J/mol
- dH [2]: 3.28 J/mol
Substance: type I collagen extracted from male Wistar Hannover rat tail tendons (dialyzed), P02454 152-1207; P02466 86-1125 (complex; other documents disagree on this pair)
